Columns and labels:
[1] = molecular target: DDB1ΔB-DCAF15biotin (human) (UniProt Q16531); assay: TR-FRET dimerization assay; the compound E7820 is titrated (EC50 is of the compound) to DDB1ΔB-DCAF15 in the presence of BodipyFL-RBM23RRM2-WT, FIG. 5E
[2] = molecular target: DDB1ΔB-DCAF15biotin-DDA1 (human) (UniProt Q16531); assay: TR-FRET with E7820; DDB1-DCAF15-DDA1 against DDB1-DCAF15
[3] = molecular target: DDB1ΔB-DCAF15biotin (human) (UniProt Q16531); assay: TR-FRET, BodipyFL-RBM39RRM2 titrated to DDB1ΔB-DCAF15biotin in the presence of E7820 at 50 µM; apparent KD
[4] = molecular target: DDB1ΔB-DCAF15biotin (human) (UniProt Q16531); assay: TR-FRET, BodipyFL-RBM39RRM2 titrated to DDB1ΔB-DCAF15biotin in the presence of indisulam at 50 µM; apparent KD
[5] = molecular target: DDB1ΔB-DCAF15biotin (human) (UniProt Q16531); assay: TR-FRET, BodipyFL-RBM39RRM2 titrated to DDB1ΔB-DCAF15biotin in the presence of tasisulam at 50 µM; apparent KD
[6] = molecular target: DDB1ΔB-DCAF15biotin (human) (UniProt Q16531); assay: TR-FRET, BodipyFL-RBM39RRM2 titrated to DDB1ΔB-DCAF15biotin in the presence of E7820 (50 µM), FIG. 3C; apparent KD
[7] = molecular target: DDB1ΔB-DCAF15biotin (human) (UniProt Q16531); assay: TR-FRET dimerization assay; the compound E7820 is titrated (EC50 is of the compound), both proteins at 200 nM, FIG. 7F
[8] = molecular target: DDB1ΔB-DCAF15biotin-DDA1 (human) (UniProt Q16531); assay: TR-FRET, BodipyFL-RBM39RRM2 titrated to DDB1ΔB-DCAF15biotin-DDA1 in the presence of E7820 (50 µM), FIG. 3C; apparent KD
[9] = molecular target: DDB1ΔB-DCAF15biotin (human) (UniProt Q16531); assay: TR-FRET dimerization assay; the compound indisulam is titrated (EC50 is of the compound), both proteins at 200 nM, FIG. 7F
[10] = molecular target: DDB1ΔB-DCAF15biotin (human) (UniProt Q16531); assay: TR-FRET dimerization assay; the compound tasisulam is titrated (EC50 is of the compound), both proteins at 200 nM, FIG. 7F
[11] = molecular target: DDB1ΔB-DCAF15biotin-DDA1 (human) (UniProt Q16531); assay: TR-FRET dimerization assay; the compound E7820 is titrated (EC50 is of the compound) to DDB1ΔB-DCAF15biotin-DDA1 and BodipyFL-RBM39RRM2, FIG. 3D

BodipyFL-RBM39RRM2, sequence (Q14498 245-332): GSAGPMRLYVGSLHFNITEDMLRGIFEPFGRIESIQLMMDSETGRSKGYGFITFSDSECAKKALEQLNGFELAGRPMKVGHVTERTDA

| EC50 [1] [nM] | fold strengthening of apparent affinity against the complex without DDA1 [2] [fold] | Kd [3] [nM] | Kd [4] [nM] | Kd [5] [nM] | Kd [6] [nM] | EC50 [7] [nM] | Kd [8] [nM] | EC50 [9] [nM] | EC50 [10] [nM] | EC50 [11] [nM] | Substance |
| --- | --- | --- | --- | --- | --- | --- | --- | --- | --- | --- | --- |
| 1000 |  |  |  |  |  |  |  |  |  |  | BodipyFL-RBM23RRM2-WT (from UniProt Q86U06 263-341) |
|  | 3 | 2000 | 2100 | 3500 | 1900 | 740 | 620 | 3200 | > 10000 | 330 | BodipyFL-RBM39RRM2 (from UniProt Q14498 245-332) |
